Measurements: the Human Domainome abundance scans (Beltran et al. 2025)
± gives the uncertainty stated by the source.

B1: POU domain, class 4, transcription factor 1, residues 266 to 347; numbered along this chain, Q01851 (parent)
chain: RELEAFAERFKQRRIKLGVTQADVGSALANLKIPGVGSLSQSTICRFESLTLSHNNMIALKPILQAWLEEAEGAQREKMNKP

Variants of: B1
Assay: abundance fitness (aPCA) (normalised: wild type 0, dead -1); higher = more abundant; growth selection in yeast, the domain comes from the species named
Details: Homo sapiens

In order of falling abundance fitness:
1. RELEAFAERFKQRRIKLGVTQADVGSALANLKIPGVGSLSQSTICMFESLTLSHNNMIALKPILQAWLEEAEGAQREKMNKP [R46M]  0.128 ± 0.084
2. RELEAFAERFKQRRIKLGVTQADVGSALANLKIPGVGSLSQSTICRFESLTLSHNNMIALKPILQAWLEEAEGAQREAMNKP [K78A]  0.089 ± 0.064
3. RELEAFAERFKQRRIKLGVTQADVGSALRNLKIPGVGSLSQSTICRFESLTLSHNNMIALKPILQAWLEEAEGAQREKMNKP [A29R]  0.083 ± 0.087
4. RELEAFAERFKQRRIKLGVTQADVGSALENLKIPGVGSLSQSTICRFESLTLSHNNMIALKPILQAWLEEAEGAQREKMNKP [A29E]  0.036 ± 0.11
5. RELEAFAERFKQRRIQLGVTQADVGSALANLKIPGVGSLSQSTICRFESLTLSHNNMIALKPILQAWLEEAEGAQREKMNKP [K16Q]  0.027 ± 0.032
6. RELEAFAERFKQRRIKLGVTQADVCSALANLKIPGVGSLSQSTICRFESLTLSHNNMIALKPILQAWLEEAEGAQREKMNKP [G25C]  0.025 ± 0.066
7. RELEAFAERFKQRRIKLGVTQADVGSALANLKIPGVGSLSQSTICRFESSTLSHNNMIALKPILQAWLEEAEGAQREKMNKP [L50S]  0.018 ± 0.033
8. RELEAFAERFKQRRIKLGVTQADVGSALANLKIPGVGSLSQSTICRFESLTLSHNNMIALKPILQDWLEEAEGAQREKMNKP [A66D]  0.013 ± 0.037
9. RELEAFAERFKQRRINLGVTQADVGSALANLKIPGVGSLSQSTICRFESLTLSHNNMIALKPILQAWLEEAEGAQREKMNKP [K16N]  0.011 ± 0.035
10. RELEAFAERFKQRRIKLGVTQADVGSALANLKIPGVGSLSQSTICKFESLTLSHNNMIALKPILQAWLEEAEGAQREKMNKP [R46K]  0.005 ± 0.089
11. RELEAFAERFKQRRIKLGVTQADVGSALANLKIPGVGSLSQSTICRFESLTLSHNNMIFLKPILQAWLEEAEGAQREKMNKP [A59F]  0 ± 0.095
12. RELEAFAERFKQRRIKLGVTQADVGSALANLKIPGVGSLSQSTICRFESLTLSHNNMIALKPILQTWLEEAEGAQREKMNKP [A66T]  -0.012 ± 0.033
13. RELEAFAERFKQRRIKLGVTQADVGSALANLKIPGVGSLSQSTICRFESLTLSHNNMIALKPILQAWLEEAEGAQREVMNKP [K78V]  -0.019 ± 0.057
14. RELEAFAERFKQRRIKLGVTQADVGSALANLKIPGVGSLSQSTICRFESLTLSHNNMIALKPILQGWLEEAEGAQREKMNKP [A66G]  -0.029 ± 0.022
15. RELEAFAERFKQRRIKLGVTQADVGCALANLKIPGVGSLSQSTICRFESLTLSHNNMIALKPILQAWLEEAEGAQREKMNKP [S26C]  -0.03 ± 0.064
16. RELEAFAERFKQRRIKLGVTQADVGSALANLKIPGVGSLSQSTICRFESLTLSHNNMIDLKPILQAWLEEAEGAQREKMNKP [A59D]  -0.052 ± 0.069
17. RELEAFAERFKQRRIKLGVTQADVYSALANLKIPGVGSLSQSTICRFESLTLSHNNMIALKPILQAWLEEAEGAQREKMNKP [G25Y]  -0.058 ± 0.087
18. RELEAFAERFKQRRIKLGVTQAGVGSALANLKIPGVGSLSQSTICRFESLTLSHNNMIALKPILQAWLEEAEGAQREKMNKP [D23G]  -0.067 ± 0.045
19. RELEAFAERFKQRRIKLGVTQADVGSALANLKIPGVGSLSQSTICRFESLTLSHNNMIALKPILQAWVEEAEGAQREKMNKP [L68V]  -0.074 ± 0.051
20. RELEAFAERFKQRRIKLGVTQADVGSALANLKIPGVGSLSQSTICRFESLTLSHNNMIALKPILQAWLEEAEDAQREKMNKP [G73D]  -0.105 ± 0.11
21. RELEAFAERFKQRRIYLGVTQADVGSALANLKIPGVGSLSQSTICRFESLTLSHNNMIALKPILQAWLEEAEGAQREKMNKP [K16Y]  -0.129 ± 0.037
22. RELEAFAERFKQRRIFLGVTQADVGSALANLKIPGVGSLSQSTICRFESLTLSHNNMIALKPILQAWLEEAEGAQREKMNKP [K16F]  -0.138 ± 0.039
23. RELEAFAERFKQRRIKLGVTQADVGSALANLKAPGVGSLSQSTICRFESLTLSHNNMIALKPILQAWLEEAEGAQREKMNKP [I33A]  -0.139 ± 0.03
24. RSLEAFAERFKQRRIKLGVTQADVGSALANLKIPGVGSLSQSTICRFESLTLSHNNMIALKPILQAWLEEAEGAQREKMNKP [E2S]  -0.139 ± 0.03
25. RELEAFAERFKQRRIKLGVTQADVGSALANLKIPGVGSLSQSTICRFESLTLSHNNMIALKPILQWWLEEAEGAQREKMNKP [A66W]  -0.192 ± 0.031
26. RYLEAFAERFKQRRIKLGVTQADVGSALANLKIPGVGSLSQSTICRFESLTLSHNNMIALKPILQAWLEEAEGAQREKMNKP [E2Y]  -0.236 ± 0.055
27. RELEAFAERFKQRRIKLGVTQADVGSALANLKIPGVGSLSQSTICRFESLTLSHNNMIALKPILQAWHEEAEGAQREKMNKP [L68H]  -0.329 ± 0.22
28. RELEAFAERFKQRRIKLGVTQADVGSALANLKIPGVGSLSQSTICRFESLTLSHNNMIALKRILQAWLEEAEGAQREKMNKP [P62R]  -0.347 ± 0.043
29. RELEAFAERFKQRRIKLGVTQADVGSALANLKIPGVGSLSQSTICRFESLTLSHNNMIALKAILQAWLEEAEGAQREKMNKP [P62A]  -0.366 ± 0.053
30. RELEAFAERFKQRRIKNGVTQADVGSALANLKIPGVGSLSQSTICRFESLTLSHNNMIALKPILQAWLEEAEGAQREKMNKP [L17N]  -0.455 ± 0.05
31. RELEAFAERFKQRRIKLGVTNADVGSALANLKIPGVGSLSQSTICRFESLTLSHNNMIALKPILQAWLEEAEGAQREKMNKP [Q21N]  -0.516 ± 0.38
32. RELEAFAERFKQRRIKLGVTQADVGSALANLKIPGVGSLSQSTICRFESLTLSHNNMIALKPILQAWPEEAEGAQREKMNKP [L68P]  -0.715 ± 0.18
33. RELEAFAERFKQRRIKLGVTQADVGSALANLKIPGVGSLSQSTICRFMSLTLSHNNMIALKPILQAWLEEAEGAQREKMNKP [E48M]  -1.23 ± 0.19
34. RELEAFAERFKQRRIKLGVTQADVGSALANLKIPGVGSLSQSTICRFESLTKSHNNMIALKPILQAWLEEAEGAQREKMNKP [L52K]  -1.28 ± 0.27
